Series [1] concerns the molecule itself. Put plainly: pseudo-native PAGE, self-association (homodimer), FIG. 17.
Series [2] deals with the molecule itself. Put plainly: pseudo-native PAGE (10% acrylamide, 0.1% SDS, no heat treatment), self-association. The procedure: After purification of the proteins with use of Ni-NTA, pseudo-native PAGE was carried out. The separation gel contained 10% acrylamide and 0.1% SDS. The sample buffer contained 2% SDS and 100 mM DTT. No heat treatment was carried out.

B1: StayGold (CU17S/V168A mutant) (other)
chain: MASTPFKFQLKGTINGKSFTVEGEGEGNSHEGSHKGKYVCTSGKLPMSWAALGTSFGYGMKYYTKYPSGLKNWFHEVMPEGFTYDRHIQYKGDGSIHAKHQHFMKNGTYHNIVEFTGQDFKENSPVLTGDMNVSLPNEVQHIPRDDGVECPVTLLYPLLSDKSKCVEAHQNTICKPLHNQPAPDVPYHWIRKQYTQSKDDTEERDHICQSETLEAHL
notes: Made in E. coli JM109 (DE3) and purified on Ni-NTA; also called StayGold (dimer); not shown: N-terminal histidine tag from the pRSETB vector (purified on Ni-NTA)
In the case of B1, the binding result in series [1] was “binds”.

B2: StayGold Y187A (other)
chain: MASTPFKFQLKGTINGKSFTVEGEGEGNSHEGSHKGKYVCTSGKLPMSWAALGTSFGYGMKYYTKYPSGLKNWFHEVMPEGFTYDRHIQYKGDGSIHAKHQHFMKNGTYHNIVEFTGQDFKENSPVLTGDMNVSLPNEVQHIPRDDGVECPVTLLYPLLSDKSKCVEAHQNTICKPLHNQPAPDVPAHWIRKQYTQSKDDTEERDHICQSETLEAHL
notes: not shown: histidine tag implied by Ni-NTA purification
Turning to B2, the binding result in series [2] is on record as “no binding”.

B3: StayGold L155T (other)
chain: MASTPFKFQLKGTINGKSFTVEGEGEGNSHEGSHKGKYVCTSGKLPMSWAALGTSFGYGMKYYTKYPSGLKNWFHEVMPEGFTYDRHIQYKGDGSIHAKHQHFMKNGTYHNIVEFTGQDFKENSPVLTGDMNVSLPNEVQHIPRDDGVECPVTLTYPLLSDKSKCVEAHQNTICKPLHNQPAPDVPYHWIRKQYTQSKDDTEERDHICQSETLEAHL
notes: as for B2
Regarding B3, the binding result in series [2] is “no binding”.

(Values after patent US20240209039A1 (RIKEN, published 2024).)
